In paper PMC10527606:

Tests used:
[1] = target: humanized 5c8 (hu5c8) (human (humanized antibody)); assay: SPR
TNX-1500 (human) = assay: SPR

Substance	Kd [1]	Kd (TNX-1500 (human))
FcγRIIaH (from UniProt P12318 34-217) (receptor)	510 nM	7100 nM
FcγRIIbF (from UniProt P31994 43-217) (receptor)	970 nM	–
FcγRIa (from UniProt P12314 16-292) (receptor)	0.033 nM	8.7 nM

More lines, in order of falling Kd [1], values ahead:

Kd [1]	Kd (TNX-1500 (human))	Substance
1700 nM	–	FcγRIIIaF (from UniProt P08637 17-208) (receptor)
330 nM	–	FcγRIIIaV (from UniProt P08637 17-208) (receptor)
